Earlier results as cited in article doi:10.1101/2025.04.18.649563.
pKd: −log10 of the molar value.

Biological target: F-actin (Oryctolagus cuniculus) (UniProt P68135)
Conditions: cited from earlier work

Substance: LifeAct (from UniProt Q08641)
- pKd: 5.66
